B1: GFP–Orc6 wild type (fly transgene) [Drosophila melanogaster] / Drosophila Orc2, endogenous in fly ovaries [Drosophila (endogenous in fly ovaries)] (parent)
chain 1: MTTLIEQLITKMGLREEPNVLEKTTELVRLLELRSTNVPLQINEYGKIVLCADLASCMIGIAFDKEQALKLSGLRKSQYLNNKRMFEKLLDLNKLASVNDICVQLGLNEVARKAEELMTLFKGVAATEDMGTDTSHPQYATMAVFQACRLLKKKVSKSKLMPFSNLRPSQFQLLEQQWERMIAKHHKESKVPSSTDMEGKLKENQNENIKGHEAKKAHKPPPEDYEIWKARMLAKAQAKLKELEASQSHMDSQLLEA
chain 2: MSASNKGGYKTPRKENLMSIENLTNSEEESEDLNTAMVGNAVESQPKVTSRRSTRRPSPTKKYQAYQKESNGKGQEERIVVNYVEMSDERSSDAEDQEEEESIEESENAARPAAKDLHLIQSEYNVAGTSMFGFNTPKKRDAMALAALNATPCTPKTPKTPRLGVKTPDTKRKKSMDQPKTPAHVRTRVKKQIAKIVADSDEDFSGDESDFRPSDEESSSSSSSSDAGNSSDNDAADDEPKTPSRARRAIVVPVLPKTPSAARLRQSARAKKSNEFVPESDGYFHSHASSKILTSDHTLDRLKNPRLAADRVFSLLSEIKTSAEHEGSINAIMEEYRSYFPKWMCILNEGFNILLYGLGSKHQLLQSFHREVLHKQTVLVVNGFFPSLTIKDMLDSITSDILDAGISPANPHEAVDMIEEEFALIPETHLFLIVHNLDGAMLRNVKAQAILSRLARIPNIHLLASIDHINTPLLWDQGKLCSFNFSWWDCTTMLPYTNETAFENSLLVQNSGELALSSMRSVFSSLTTNSRGIYMLIVKYQLKNKGNATYQGMPFRDLYSSCREAFLVSSDLALRAQLTEFLDHKLVKSKRSVDGSEQLTIPIDGALLQQFLEEQEKK

Variants of: B1
Experiment: GFP fluorescence of anti-Orc2 immunoprecipitates
Settings: with Drosophila Orc2, endogenous in fly ovaries [Drosophila (endogenous in fly ovaries)]; fly ovary extracts; three independent experiments; read off a plot

response (arbitrary units)	Variant
550	chain 1 MTTLIEQLITKMGLREEPNVLEKTTELVRLLELRSTNVPLQINEYGKIVLCADLASCMIGIAFDKEQALKLSGLRKSQYLNNKRMFEKLLDLNKLASVNDICVQLGLNEVARKAEELMTLFKGVAATEDMGTDTSHPQYATMAVFQACRLLKKKVSKSKLMPFSNLRPSQFQLLEQQWERMIAKHHKESKVPSSTDMEGKLKENQNENIKGHEAKKAHKPPPEAAEIWKARMLAKAQAKLKELEASQSHMDSQLLEA [chain 1 D224A Y225A]
470	chain 1 MTTLIEQLITKMGLREEPNVLEKTTELVRLLELRSTNVPLQINEYGKIVLCADLASCMIGIAFDKEQALKLSGLRKSQYLNNKRMFEKLLDLNKLASVNDICVQLGLNEVARKAEELMTLFKGVAATEDMGTDTSHPQYATMAVFQACRLLKKKVSKSKLMPFSNLRPSQFQLLEQQWERMIAKHHKESKVPSSTDMEGKLKENQNENIKGHEAKKAHKPPPEDYEIAAARMLAKAQAKLKELEASQSHMDSQLLEA [chain 1 W228A K229A]
